Measured values as given in publication doi:10.1101/2024.05.31.596772 (2024).

Target: microtubules (pig (purified from porcine brain))
Sequence (chain, as listed by the source, chain 1 of 2): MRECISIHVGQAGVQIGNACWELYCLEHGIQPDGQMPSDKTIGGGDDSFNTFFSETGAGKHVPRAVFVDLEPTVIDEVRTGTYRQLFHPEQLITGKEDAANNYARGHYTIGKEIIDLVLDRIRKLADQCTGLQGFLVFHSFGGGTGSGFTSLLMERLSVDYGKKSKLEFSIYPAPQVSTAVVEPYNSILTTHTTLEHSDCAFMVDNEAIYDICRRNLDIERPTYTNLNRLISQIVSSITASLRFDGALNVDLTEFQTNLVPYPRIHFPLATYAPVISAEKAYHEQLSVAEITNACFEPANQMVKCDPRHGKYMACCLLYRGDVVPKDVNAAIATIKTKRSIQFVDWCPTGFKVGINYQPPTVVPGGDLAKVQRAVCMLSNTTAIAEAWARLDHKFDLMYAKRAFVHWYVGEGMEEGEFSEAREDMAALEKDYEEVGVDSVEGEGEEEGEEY
Sequence (chain, as listed by the source, chain 2 of 2): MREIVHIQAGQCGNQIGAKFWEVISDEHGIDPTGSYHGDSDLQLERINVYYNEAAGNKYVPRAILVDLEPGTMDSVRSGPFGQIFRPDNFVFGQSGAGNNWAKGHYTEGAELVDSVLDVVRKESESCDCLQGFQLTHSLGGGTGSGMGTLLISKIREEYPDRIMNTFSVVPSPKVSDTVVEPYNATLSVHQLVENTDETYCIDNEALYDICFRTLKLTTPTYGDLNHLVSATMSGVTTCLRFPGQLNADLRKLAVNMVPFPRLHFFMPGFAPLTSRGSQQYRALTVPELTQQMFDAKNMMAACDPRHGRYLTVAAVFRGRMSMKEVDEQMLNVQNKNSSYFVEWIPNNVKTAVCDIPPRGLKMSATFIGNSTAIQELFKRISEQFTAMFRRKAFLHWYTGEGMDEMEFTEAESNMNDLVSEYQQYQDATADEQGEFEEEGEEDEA

B1: GFP-CAMSAP3 CKK (domain or fragment)
chain: GPRLYKEPSAKSNKFIIHNALSHCCLAGKVNEPQKNRILEEIEKSKANHFLILFRDSSCQFRALYTLSGETEELSRLAGYGPRTVTPAMVEGIYKYNSDRKRFTQIPAKTMSMSVDAFTIQGHLWQSKKPTTPKK
**Q.** How did the Kd turn out when B1 was run?
**A.** 2140 nM
